# From doi:10.1101/2025.06.10.658867 (bioRxiv, 2025)
# Key:
# [1] = molecular target: Siglec-10_(d1-d2) WT fused to human IgG1 Fc (Siglec-10Fc WT) (human, UniProt Q96LC7); assay: BLI
# [2] = molecular target: the molecule itself; assay: DNA-PAINT super-resolution microscopy with nearest-neighbour distance analysis
Kd [1] [nM],Binder,mean percent dimers after tunicamycin [2] [%],mean percent dimers before tunicamycin [2] [%],percent dimers [2] [%]
1.1,"Fab portion of the anti-Siglec-10 mAb S10A (S10A Fab) (Fab, V domains shown) VH: QIQLQQSGAELEKPGASVKMSCKASGYTFTSYWMHWVKQRPGQGLEWIGYINPDTDSTEYNQKFRDKATLTADKSSSTAYMQLSSLTSEDSAVYYCARPYYRYAGYAMDYWGQGTSVTVSS VL: DIKMTQSPSSMYASLGERVTITCKASQDINSYLSWFQQKPGKSPKTLIYRANRLVDGVPSRFSGSGSGQVYSLTISSLEYEDLGIYYCLQYDEFPWTFGGGTKLEIK",,,
,"intracellularly GFP-tagged Siglec-10 R127A in THP-1 cells (receptor, human, UniProt Q96LC7 17-697, looked up) MDGRFWIRVQESVMVPEGLCISVPCSFSYPRQDWTGSTPAYGYWFKAVTETTKGAPVATNHQSREVEMSTRGRFQLTGDPAKGNCSLVIRDAQMQDESQYFFRVERGSYVAYNFMNDGFFLKVTALTQKPDVYIPETLEPGQPVTVICVFNWAFEECPPPSFSWTGAALSSQGTKPTTSHFSVLSFTPRPQDHNTDLTCHVDFSRKGVSAQRTVRLRVAYAPRDLVISISRDNTPALEPQPQGNVPYLEAQKGQFLRLLCAADSQPPATLSWVLQNRVLSSSHPWGPRPLGLELPGVKAGDSGRYTCRAENRLGSQQRALDLSVQYPPENLRVMVSQANRTVLENLGNGTSLPVLEGQSLCLVCVTHSSPPARLSWTQRGQVLSPSQPSDPGVLELPRVQVEHEGEFTCHARHPLGSQHVSLSLSVHYSPKLLGPSCSWEAEGLHCSCSSQASPAPSLRWWLGEELLEGNSSQDSFEVTPSSAGPWANSSLSLHGGLSSGLRLRCEAWNVHGAQSGSILQLPDKKGLISTAFSNGAFLGIGITALLFLCLALIIMKILPKRRTQTETPRPRFSRHSTILDYINVVPTAGPLAQKRNQKATPNSPRTPLPPGAPSPESKKNQKKQYQLPSFPEPKSSTQAPESQESQEELHYATLNFPGVRPRPEARMPKGTQADYAEVKFQ",69,59,47
,"intracellularly GFP-tagged Siglec-10 WT in THP-1 cells (receptor, human, UniProt Q96LC7 17-697, looked up) MDGRFWIRVQESVMVPEGLCISVPCSFSYPRQDWTGSTPAYGYWFKAVTETTKGAPVATNHQSREVEMSTRGRFQLTGDPAKGNCSLVIRDAQMQDESQYFFRVERGSYVRYNFMNDGFFLKVTALTQKPDVYIPETLEPGQPVTVICVFNWAFEECPPPSFSWTGAALSSQGTKPTTSHFSVLSFTPRPQDHNTDLTCHVDFSRKGVSAQRTVRLRVAYAPRDLVISISRDNTPALEPQPQGNVPYLEAQKGQFLRLLCAADSQPPATLSWVLQNRVLSSSHPWGPRPLGLELPGVKAGDSGRYTCRAENRLGSQQRALDLSVQYPPENLRVMVSQANRTVLENLGNGTSLPVLEGQSLCLVCVTHSSPPARLSWTQRGQVLSPSQPSDPGVLELPRVQVEHEGEFTCHARHPLGSQHVSLSLSVHYSPKLLGPSCSWEAEGLHCSCSSQASPAPSLRWWLGEELLEGNSSQDSFEVTPSSAGPWANSSLSLHGGLSSGLRLRCEAWNVHGAQSGSILQLPDKKGLISTAFSNGAFLGIGITALLFLCLALIIMKILPKRRTQTETPRPRFSRHSTILDYINVVPTAGPLAQKRNQKATPNSPRTPLPPGAPSPESKKNQKKQYQLPSFPEPKSSTQAPESQESQEELHYATLNFPGVRPRPEARMPKGTQADYAEVKFQ",50,61,67
,"intracellularly GFP-tagged Siglec-10 R119A in THP-1 cells (receptor, human, UniProt Q96LC7 17-697, looked up) MDGRFWIRVQESVMVPEGLCISVPCSFSYPRQDWTGSTPAYGYWFKAVTETTKGAPVATNHQSREVEMSTRGRFQLTGDPAKGNCSLVIRDAQMQDESQYFFAVERGSYVRYNFMNDGFFLKVTALTQKPDVYIPETLEPGQPVTVICVFNWAFEECPPPSFSWTGAALSSQGTKPTTSHFSVLSFTPRPQDHNTDLTCHVDFSRKGVSAQRTVRLRVAYAPRDLVISISRDNTPALEPQPQGNVPYLEAQKGQFLRLLCAADSQPPATLSWVLQNRVLSSSHPWGPRPLGLELPGVKAGDSGRYTCRAENRLGSQQRALDLSVQYPPENLRVMVSQANRTVLENLGNGTSLPVLEGQSLCLVCVTHSSPPARLSWTQRGQVLSPSQPSDPGVLELPRVQVEHEGEFTCHARHPLGSQHVSLSLSVHYSPKLLGPSCSWEAEGLHCSCSSQASPAPSLRWWLGEELLEGNSSQDSFEVTPSSAGPWANSSLSLHGGLSSGLRLRCEAWNVHGAQSGSILQLPDKKGLISTAFSNGAFLGIGITALLFLCLALIIMKILPKRRTQTETPRPRFSRHSTILDYINVVPTAGPLAQKRNQKATPNSPRTPLPPGAPSPESKKNQKKQYQLPSFPEPKSSTQAPESQESQEELHYATLNFPGVRPRPEARMPKGTQADYAEVKFQ",69,72,69
